The numbers were not newly measured in paper PMC3721222, which cites them from elsewhere.

Like-named read-outs stand apart in the source and are kept apart here.

Some targets named below: Thrombin (Homo sapiens) (UniProt P00734); Cathepsin D (UniProt P07339); Kv1.6 (UniProt P17658); Kv1.1 (UniProt Q09470); Kv1.2 (UniProt P16389).
Data set [1] addresses Trypsin (Bos taurus) (UniProt P00760).
Data set [2] concerns the target Chymotrypsin (Bos taurus) (UniProt P00766).
The target of data set [3] is Pancreatic elastase (Sus scrofa) (UniProt P00772).
Data set [4] addresses Subtilisin A (Bacillus licheniformis) (UniProt P00780).
Data set [5] concerns the target Neutrophil elastase (Homo sapiens) (UniProt P08246).
The target of data set [6] is Proteinase K (Parengyodontium album) (UniProt P06873).
The target of data set [7] is Chymotrypsin (Bos taurus) (UniProt P00766). This is another data set of the same source.
In data set [8] the target is Trypsin (Bos taurus) (UniProt P00760). This is another data set of the same source.
The target is the same in data set [9]. The source holds these as a separate data set.
Data set [10] has as its target Chymotrypsin (Bos taurus) (UniProt P00766). The source holds these as a separate data set.
Data set [11] has as its target Trypsin (Bos taurus) (UniProt P00760). This is another data set of the same source.
The target in data set [12] is Chymotrypsin (Bos taurus) (UniProt P00766). This is another data set of the same source.
The target in data set [13] is Trypsin (Bos taurus) (UniProt P00760). The source holds these as a separate data set.
Data set [14] has as its target Plasmin (Homo sapiens) (UniProt P00747).
Data set [15] has as its target Trypsin (Bos taurus) (UniProt P00760). The source holds these as a separate data set.
For data set [16], the target named is Chymotrypsin (Bos taurus) (UniProt P00766). The source holds these as a separate data set.
Data set [17] addresses Plasmin (Homo sapiens) (UniProt P00747). The source holds these as a separate data set.
Data set [18] deals with Trypsin (Bos taurus) (UniProt P00760). This is another data set of the same source.
Data set [19] concerns the target Plasma kallikrein (Homo sapiens) (UniProt P03952).
Data set [20] deals with alpha-Factor XIIa (Homo sapiens) (UniProt P00748).
In data set [21] the target is Trypsin (Bos taurus) (UniProt P00760). The source holds these as a separate data set.
Data set [22] deals with Plasmin (Homo sapiens) (UniProt P00747). This is another data set of the same source.
The target in data set [23] is Trypsin (Bos taurus) (UniProt P00760). This is another data set of the same source.

Sequence of UniProt P00760 (P00760 149-246): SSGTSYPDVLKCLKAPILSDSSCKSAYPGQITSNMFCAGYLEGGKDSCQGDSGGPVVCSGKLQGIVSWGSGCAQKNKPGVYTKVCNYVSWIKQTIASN
Sequence of UniProt P00747 (P00747 581-810): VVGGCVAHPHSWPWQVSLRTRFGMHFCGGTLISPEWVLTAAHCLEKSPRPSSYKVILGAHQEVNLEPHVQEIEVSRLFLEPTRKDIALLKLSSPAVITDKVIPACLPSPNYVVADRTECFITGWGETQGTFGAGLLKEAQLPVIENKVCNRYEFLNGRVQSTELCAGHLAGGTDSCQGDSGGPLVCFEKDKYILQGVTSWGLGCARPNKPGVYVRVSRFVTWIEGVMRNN
Sequence of UniProt P07339 (P07339 65-412): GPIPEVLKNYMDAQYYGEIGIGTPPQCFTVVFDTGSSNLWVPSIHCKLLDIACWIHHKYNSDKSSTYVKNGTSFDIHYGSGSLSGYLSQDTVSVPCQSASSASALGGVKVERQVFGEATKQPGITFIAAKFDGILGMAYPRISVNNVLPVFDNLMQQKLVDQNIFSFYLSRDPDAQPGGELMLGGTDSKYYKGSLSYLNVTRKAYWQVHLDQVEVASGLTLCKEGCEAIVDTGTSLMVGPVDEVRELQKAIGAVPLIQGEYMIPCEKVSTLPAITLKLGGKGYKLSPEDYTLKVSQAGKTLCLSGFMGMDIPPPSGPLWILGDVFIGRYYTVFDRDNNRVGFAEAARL
Sequence of UniProt P06873 (P06873 106-384): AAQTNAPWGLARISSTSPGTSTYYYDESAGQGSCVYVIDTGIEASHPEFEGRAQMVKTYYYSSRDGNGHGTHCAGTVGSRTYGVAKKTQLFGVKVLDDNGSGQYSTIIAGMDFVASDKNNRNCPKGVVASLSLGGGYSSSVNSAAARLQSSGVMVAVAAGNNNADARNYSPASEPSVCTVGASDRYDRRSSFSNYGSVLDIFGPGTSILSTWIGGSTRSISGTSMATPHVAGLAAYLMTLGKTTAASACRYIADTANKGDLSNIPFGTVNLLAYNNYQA
Sequence of UniProt Q09470 (Q09470 whole entry): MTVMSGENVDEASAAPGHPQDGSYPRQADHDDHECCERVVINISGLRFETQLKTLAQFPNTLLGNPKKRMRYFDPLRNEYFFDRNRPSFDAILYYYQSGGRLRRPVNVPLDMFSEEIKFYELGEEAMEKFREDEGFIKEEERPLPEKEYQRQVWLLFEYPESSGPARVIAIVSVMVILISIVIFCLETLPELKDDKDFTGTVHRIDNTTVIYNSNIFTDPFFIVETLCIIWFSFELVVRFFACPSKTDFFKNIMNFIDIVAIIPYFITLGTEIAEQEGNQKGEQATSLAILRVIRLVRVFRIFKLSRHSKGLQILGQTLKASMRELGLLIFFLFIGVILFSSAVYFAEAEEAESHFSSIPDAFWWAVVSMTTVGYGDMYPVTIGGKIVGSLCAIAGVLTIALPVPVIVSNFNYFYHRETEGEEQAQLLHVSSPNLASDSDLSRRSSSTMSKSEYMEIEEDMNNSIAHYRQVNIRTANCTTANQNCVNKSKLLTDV
Sequence of UniProt P00780 (P00780 106-379): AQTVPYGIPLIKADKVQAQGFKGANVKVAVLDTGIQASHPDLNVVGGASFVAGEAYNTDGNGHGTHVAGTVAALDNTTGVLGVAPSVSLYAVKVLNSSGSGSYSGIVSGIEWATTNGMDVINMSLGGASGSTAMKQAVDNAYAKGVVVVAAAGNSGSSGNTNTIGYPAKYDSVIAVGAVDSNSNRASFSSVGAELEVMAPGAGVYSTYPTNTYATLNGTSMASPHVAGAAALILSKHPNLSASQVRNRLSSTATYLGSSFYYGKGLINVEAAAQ
Sequence of UniProt P03952 (P03952 391-638): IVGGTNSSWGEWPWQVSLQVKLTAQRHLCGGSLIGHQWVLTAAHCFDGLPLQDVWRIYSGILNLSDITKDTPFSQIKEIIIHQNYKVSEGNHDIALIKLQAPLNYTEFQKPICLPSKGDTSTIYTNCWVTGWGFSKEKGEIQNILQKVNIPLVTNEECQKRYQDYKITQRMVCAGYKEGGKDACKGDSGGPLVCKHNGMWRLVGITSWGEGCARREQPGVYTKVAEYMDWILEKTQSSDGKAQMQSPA
Sequence of UniProt P00748 (P00748 20-372, chain 1 of 2): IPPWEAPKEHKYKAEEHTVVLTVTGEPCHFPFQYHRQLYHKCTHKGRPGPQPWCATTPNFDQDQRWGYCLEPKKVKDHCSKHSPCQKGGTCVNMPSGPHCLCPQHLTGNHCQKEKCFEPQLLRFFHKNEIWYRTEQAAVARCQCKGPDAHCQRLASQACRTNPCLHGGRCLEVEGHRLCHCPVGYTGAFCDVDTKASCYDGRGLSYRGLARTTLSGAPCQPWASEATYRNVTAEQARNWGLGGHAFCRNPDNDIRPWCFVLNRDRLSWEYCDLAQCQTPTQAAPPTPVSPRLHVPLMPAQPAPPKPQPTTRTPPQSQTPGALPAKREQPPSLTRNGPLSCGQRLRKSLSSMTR
Sequence of UniProt P00748 (P00748 373-615, chain 2 of 2): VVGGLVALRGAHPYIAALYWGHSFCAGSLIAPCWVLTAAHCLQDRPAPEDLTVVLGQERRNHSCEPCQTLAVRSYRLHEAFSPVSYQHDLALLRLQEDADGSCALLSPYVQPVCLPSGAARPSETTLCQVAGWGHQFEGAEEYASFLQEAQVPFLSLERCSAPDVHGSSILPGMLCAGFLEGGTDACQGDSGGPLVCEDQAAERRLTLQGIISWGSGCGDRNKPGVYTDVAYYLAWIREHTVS
Sequence of UniProt P17658 (P17658 whole entry): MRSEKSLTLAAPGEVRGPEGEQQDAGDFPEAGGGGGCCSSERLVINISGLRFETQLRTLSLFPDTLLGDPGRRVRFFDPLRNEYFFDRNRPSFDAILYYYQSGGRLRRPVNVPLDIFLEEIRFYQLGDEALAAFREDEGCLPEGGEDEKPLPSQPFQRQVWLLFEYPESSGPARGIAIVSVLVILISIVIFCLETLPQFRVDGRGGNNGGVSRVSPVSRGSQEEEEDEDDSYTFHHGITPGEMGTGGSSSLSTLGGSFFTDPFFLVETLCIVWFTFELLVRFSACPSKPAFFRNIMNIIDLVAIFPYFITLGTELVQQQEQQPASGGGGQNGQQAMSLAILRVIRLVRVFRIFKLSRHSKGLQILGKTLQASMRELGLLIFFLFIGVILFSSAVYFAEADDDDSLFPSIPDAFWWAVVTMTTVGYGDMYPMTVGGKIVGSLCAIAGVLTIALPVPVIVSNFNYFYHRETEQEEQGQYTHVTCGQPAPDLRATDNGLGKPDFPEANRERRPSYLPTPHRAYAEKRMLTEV
Sequence of UniProt P16389 (P16389 whole entry): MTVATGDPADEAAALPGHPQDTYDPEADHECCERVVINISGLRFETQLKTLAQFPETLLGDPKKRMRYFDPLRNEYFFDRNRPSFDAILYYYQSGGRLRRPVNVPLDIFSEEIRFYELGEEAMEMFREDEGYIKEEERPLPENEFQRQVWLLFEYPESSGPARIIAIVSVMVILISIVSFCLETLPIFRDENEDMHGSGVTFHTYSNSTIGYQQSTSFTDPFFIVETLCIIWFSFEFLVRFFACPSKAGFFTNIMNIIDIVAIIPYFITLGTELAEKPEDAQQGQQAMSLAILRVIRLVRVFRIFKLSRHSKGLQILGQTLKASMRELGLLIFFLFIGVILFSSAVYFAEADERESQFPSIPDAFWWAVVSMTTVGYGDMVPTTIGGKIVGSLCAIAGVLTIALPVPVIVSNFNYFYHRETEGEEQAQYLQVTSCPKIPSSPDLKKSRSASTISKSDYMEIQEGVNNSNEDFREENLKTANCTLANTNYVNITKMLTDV
Sequence of UniProt P00772 (P00772 27-266): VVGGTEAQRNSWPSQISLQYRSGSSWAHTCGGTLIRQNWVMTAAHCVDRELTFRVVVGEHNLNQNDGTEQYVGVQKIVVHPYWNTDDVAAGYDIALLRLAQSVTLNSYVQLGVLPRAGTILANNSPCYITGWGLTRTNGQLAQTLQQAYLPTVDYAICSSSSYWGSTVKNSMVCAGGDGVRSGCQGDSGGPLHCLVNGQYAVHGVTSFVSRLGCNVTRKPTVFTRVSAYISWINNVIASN
Sequence of UniProt P08246 (P08246 30-267): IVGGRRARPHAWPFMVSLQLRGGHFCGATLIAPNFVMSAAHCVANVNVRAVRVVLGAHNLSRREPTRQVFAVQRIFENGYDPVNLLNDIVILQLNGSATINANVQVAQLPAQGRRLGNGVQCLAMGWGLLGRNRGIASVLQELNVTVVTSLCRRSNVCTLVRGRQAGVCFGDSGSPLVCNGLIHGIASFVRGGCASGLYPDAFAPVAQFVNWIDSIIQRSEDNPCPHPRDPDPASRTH

Usually Kd stands for the constant that tells how readily two partners part at equilibrium. Take APEKTx1 (from UniProt P86862): the Kd in the data set with Trypsin (Bos taurus) [1] was 124 nM.

Broadly, the Ki is the dissociation constant of the complex between target and ligand, obtained from inhibition or displacement. As for AvCI (from UniProt L7X735), the inhibitory constant (Ki) in data set [2] is 49.9 nM; in data set [3] it was 11.3 nM; in data set [4] it was 20.5 nM; in data set [5], 8.74 nM; in data set [6], 65.4 nM.

For the substance BBPTI-1 (from UniProt A8Y7P1), in data set [7], the Ki is 4.77 nM.

Turning to Bicolin (from UniProt C0LNR2), the inhibition constant (Ki) was 550 nM with Trypsin (Bos taurus) [8] and 26000 nM with Thrombin (Homo sapiens).

On to “Equistatin second domain (from UniProt P81439)”, for which the Ki with Cathepsin D is 0.3 nM.

With HWTX-XI (from UniProt P68425), the Kd with Trypsin (Bos taurus) [9] is 0.23 nM.

With “OH-TCI (recombinant) (from UniProt B6RLX2)”, the figures for the Ki (in data set [10]; in the data set with Trypsin (Bos taurus) [11]) were 84.6 nM and 391 nM, respectively.

Take Oh11-1 (from UniProt P82966): the Ki in [12] is 3520 nM.

For the substance PILP-1 (from UniProt B4ESA2), the Ki with Trypsin (Bos taurus) [13] is 55.6 nM.

For Pr-mulgin 2 (from UniProt E7FL12), the Ki is 40 nM with Plasmin (Homo sapiens) [14], 5 nM in the data set with Trypsin (Bos taurus) [15] and 40 nM in data set [16].

As to Pr-mulgin 3 (from UniProt E7FL13), the inhibition constant Ki with Plasmin (Homo sapiens) [17] was 100 nM; in the data set with Trypsin (Bos taurus) [18], 5 nM.

With TSPI (from UniProt B7S4N9), the values for the Ki in [19] and in data set [20] were 0.057 nM and 2380 nM, respectively.

With Textilinin-1 (from UniProt Q90WA1), the Ki in the data set with Trypsin (Bos taurus) [21] was 0.76 nM; with Plasmin (Homo sapiens) [22] it was 0.49 nM.

Take rBmKTT-3 (from UniProt P0DJ47): the dissociation constant Kd with Trypsin (Bos taurus) [23] was 760 nM.

For the substance α-dendrotoxin (from UniProt P00980), the Kd in the data set with Kv1.6, in the data set with Kv1.1 and with Kv1.2 was below 20 nM each time.
